From patent publication US20240417484A1, “ANTIGEN-BINDING POLYPEPTIDES AGAINST CD73” (UNIVERSITÄTSKLINIKUM HAMBURG-EPPENDORF, priority 2021, published 2024)
Changes are numbered by the printed parent chain.

T1: human CD73 on cells (CD73-transfected HEK cells; native on PBMCs; OCI-AML3 cells) (human, UniProt P21589 27-549)
T1 construct: also called NT5E; gene ID 4907
T1 sequence: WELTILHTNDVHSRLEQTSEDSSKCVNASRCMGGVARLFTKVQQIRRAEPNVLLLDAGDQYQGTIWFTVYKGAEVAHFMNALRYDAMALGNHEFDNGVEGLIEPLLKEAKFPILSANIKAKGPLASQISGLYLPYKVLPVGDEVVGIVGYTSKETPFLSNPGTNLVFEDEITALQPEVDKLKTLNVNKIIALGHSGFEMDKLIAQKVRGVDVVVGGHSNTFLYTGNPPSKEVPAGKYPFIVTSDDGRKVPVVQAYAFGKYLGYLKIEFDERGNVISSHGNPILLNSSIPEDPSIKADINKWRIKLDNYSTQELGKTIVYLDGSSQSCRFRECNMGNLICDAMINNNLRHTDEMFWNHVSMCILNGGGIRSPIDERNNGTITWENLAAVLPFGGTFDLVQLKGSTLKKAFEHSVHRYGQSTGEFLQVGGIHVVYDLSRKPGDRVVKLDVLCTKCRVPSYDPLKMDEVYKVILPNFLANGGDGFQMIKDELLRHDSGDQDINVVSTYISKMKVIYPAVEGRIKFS

T2: recombinant human CD73 ectodomain (aa 27-549) with C-terminal His6x tag (human, UniProt P21589 27-549)
T2 construct: also called soluble recombinant human CD73; soluble human CD73
T2 sequence: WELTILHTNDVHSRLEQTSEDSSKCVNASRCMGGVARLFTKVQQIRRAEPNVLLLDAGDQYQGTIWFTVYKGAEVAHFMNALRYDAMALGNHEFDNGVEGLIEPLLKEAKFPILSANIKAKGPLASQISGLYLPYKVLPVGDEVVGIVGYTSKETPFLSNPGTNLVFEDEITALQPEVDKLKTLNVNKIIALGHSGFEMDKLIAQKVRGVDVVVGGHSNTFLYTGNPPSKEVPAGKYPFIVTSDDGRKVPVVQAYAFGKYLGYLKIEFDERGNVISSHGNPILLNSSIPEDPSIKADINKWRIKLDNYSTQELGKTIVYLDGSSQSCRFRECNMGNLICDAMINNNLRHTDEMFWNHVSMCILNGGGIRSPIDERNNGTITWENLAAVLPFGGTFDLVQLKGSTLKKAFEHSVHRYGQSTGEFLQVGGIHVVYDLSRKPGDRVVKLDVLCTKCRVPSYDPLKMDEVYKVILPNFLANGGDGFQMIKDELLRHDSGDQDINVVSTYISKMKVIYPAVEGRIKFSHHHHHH

T3: mouse CD73 on transfected HEK cells (mouse, UniProt Q61503 29-551)
T3 construct: whole, on cells; also called murine CD73; gene ID 23959
T3 sequence (looked up): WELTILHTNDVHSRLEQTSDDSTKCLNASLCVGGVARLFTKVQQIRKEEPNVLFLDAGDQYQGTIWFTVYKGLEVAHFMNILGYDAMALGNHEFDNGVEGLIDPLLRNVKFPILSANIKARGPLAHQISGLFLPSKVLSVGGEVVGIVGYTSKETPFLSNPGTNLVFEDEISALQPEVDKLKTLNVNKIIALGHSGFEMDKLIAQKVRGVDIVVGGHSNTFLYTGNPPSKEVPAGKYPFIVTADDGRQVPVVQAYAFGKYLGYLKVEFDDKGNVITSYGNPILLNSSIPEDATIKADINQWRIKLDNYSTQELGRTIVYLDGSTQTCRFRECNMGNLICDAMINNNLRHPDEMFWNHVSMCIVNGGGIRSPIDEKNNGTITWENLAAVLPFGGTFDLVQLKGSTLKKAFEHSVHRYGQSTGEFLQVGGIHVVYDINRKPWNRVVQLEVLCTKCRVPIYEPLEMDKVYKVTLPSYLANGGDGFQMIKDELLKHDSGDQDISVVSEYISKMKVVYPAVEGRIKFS

B1: SB139 rabbit IgG hcAb (Fc fusion)
heavy: QVQLQESGGGLVQAGGSLRLSCAASENIFNIYGMGWYRQAPGKLRDLVAKITSGGRTTYADSVKGRFTISGDNAKNTVYLQMNSLKPEDTAVYYCNSYYYWGQGTQVTVSS
notes: not shown: hinge and Fc-domains of rabbit IgG
B2: SB121 rabbit IgG hcAb (Fc fusion)
heavy: QVQLQESGGGLVQAGGSLRLSCAASGSIGSIIAMGWYRQGPGKQRELVARMFTDDGSTNYDDSVKGRFTISRDSAGTTVYLQMNSLKPEDTAVYYCNAQRRWNAYWGPGTQVTVSS
notes: as for B1
B3: SB116 rabbit IgG hcAb (Fc fusion)
heavy: QVKLQESGGGRVQTGGSLRLSCAASGISFSITTMYWYRQAPGEQRQLVALITDRGNTYYVDSVKGRFTISRDDSKNTVYLQMNDLKPEDTAVYFCNSIPGNDWGQGTQVTVSS
notes: also called SB116-rbFc; dimeric SB116 Fc construct; not shown: hinge and Fc-domains of rabbit IgG
B4: SB143 rabbit IgG hcAb (Fc fusion)
heavy: QVQLVESGGGLVQAGGSLRLSCAASGRTFSRSTMGWFRQAPGKERVFVAAIRWIGGTTTYGDSVKGRFTISVDNAKNTLYLQMNSLKPEDTAVYYCAATAGGPYYLGGRDILYDYWGQGTQVTVSS
notes: as for B1
B5: SB144 rabbit IgG hcAb (Fc fusion)
heavy: B4 heavy with R31G, V46A, T58A, T59K, V72I, Y104D, L112V
notes: as for B1
B6: SB141 rabbit IgG hcAb (Fc fusion)
heavy: QVQLVESGGGLVQPGGSLRLSCAASGFTFINYHMSWLRQAPGKGLEWVSEIHSRGDITSYTNSVKGRFTISRDNAKNTLYLQMNSLKFDDTAVYYCARSRDLFNEGEYDYWGRGTQVTVSS
notes: as for B1
B7: SB96 rabbit IgG hcAb (Fc fusion)
heavy: DVQLQASGGGLVQPGGSLRLSCTASGFTLDYLSIGWFRQVPGKEREGVSCINSSGGSTNYADSLKGRLTISRDNAKNTVYLQMNSLKPEDTAVYYCAAHKYYYCSNKVEVFDYWGQGTPVTVSS
notes: VHH fused upstream of hinge and Fc of rabbit IgG; also called Nb-rbIgG hcAb SB96; not shown: hinge and Fc-domains of rabbit IgG

What was measured:
[1] = biological target: T1, human CD73 on cells (CD73-transfected …); assay: flow cytometry, human CD73-expressing cells; competitor: human IgG hcAb SB121
Description: (§1) The binding specificities of the purified hcAbs were determined by flow cytometry using HEK cells transiently co-transfected with expression vectors for GFP and either mouse CD73, human CD73 or a control protein (CD39). 1×10⁶ cells were incubated with 10 μl of the Nb-rbIgG hcAb containing HEK-6E cell supernatants for 30 min at 4° C. […] The cells were resuspended in PBS and analyzed by flow cytometry on FACS Canto or FACS Celesta (BD Biosciences, Heidelberg). Data evaluation was conducted using the software FlowJo (Treestar, Stanford, US).
(§2) To evaluate the epitopes on the CD73 protein recognized by different VHHs, representative rabbit IgG hcAbs were binned against a set of human IgG hcAbs, and bound hcAbs were detected with a PE-conjugated anti-rabbit IgG secondary antibody. Cells were pre-incubated with excess human IgG hcAbs for […] at RT to block specific epitopes before addition of rabbit IgG hcAbs as detectors and further incubation for 15 min at RT. Cells were washed, and bound antibodies were detected with PE-conjugated anti-rabbit IgG polyclonal antibody. Cells were washed and analyzed by flow cytometry on a BD-FACS Canto. Data were analyzed using the FlowJo software (Treestar). Lack of blockade by a non-binding control human IgG hcAb served as negative control (unblocked), and blockade of binding with the same VHH carrying human IgG hcAb as the rabbit IgG hcAb used for detection served as positive controls for blocking. Values for blocking were determined by comparing the mean fluorescence intensities (MFIs) of PE staining of transfected cells for unblocked vs blocked rabbit hcAbs using the formula: inhibition (%)=100−(MFI (blocked)/MFI MFI(unblocked)*100). The values were rounded to whole percentages.

[2] = biological target: T2, recombinant human CD73 ectodomain (aa …); assay: BLI (Octet), immobilized Nb-rbIgG hcAb, soluble human CD73 as analyte
Description: The binding off-rate constants of bivalent hcAbs to human and mouse CD73 protein were determined by […] kinetic analysis on Octet RED96 (ForteBio). Immobilization of rabbit IgG hcAbs on the protein A-biosensor surface was done in HEK-6E cell supernatant, and regeneration of analytes was done with 100 mM Glycin pH=2.5. Recombinant mouse or human CD73 ectodomain was used as analytes and tested at a saturating dose of 200 ng/μl. Sensorgrams were fitted using least square regression in association than dissociation Model in Prism8 (Graphpad).

[3] = biological target: T1, human CD73 on cells (CD73-transfected …); assay: flow cytometry, human CD73-expressing cells; competitor: human IgG hcAb SB96
Description: as §1, §2

[4] = biological target: T1, human CD73 on cells (CD73-transfected …); assay: flow cytometry, human CD73-expressing cells; competitor: IPH5301
Description: as §1, §2

[5] = biological target: T3, mouse CD73 on transfected HEK cells; assay: specificity column, binding to human (h) and mouse (m) CD73
Description: as §1

[6] = biological target: T1, human CD73 on cells (CD73-transfected …); assay: flow cytometry, human CD73-expressing cells; competitor: human IgG hcAb SB143
Description: as §1, §2

[7] = biological target: T1, human CD73 on cells (CD73-transfected …); assay: flow cytometry, human CD73-expressing cells; competitor: human IgG hcAb SB116
Description: as §1, §2

[8] = biological target: T1, human CD73 on cells (CD73-transfected …); assay: flow cytometry, human CD73-expressing cells; competitor: human IgG hcAb SB141
Description: as §1, §2

[9] = biological target: T1, human CD73 on cells (CD73-transfected …); assay: flow cytometry, human CD73-expressing cells; competitor: human IgG hcAb SB139
Description: as §1, §2

[10] = biological target: T1, human CD73 on cells (CD73-transfected …); assay: flow cytometry, human CD73-expressing cells; competitor: MEDI9447
Description: as §1, §2

Row | Binder | percent inhibition of binding [1] | koff [2] | percent inhibition of binding [3] | percent inhibition of binding [4] | binding result [5] | percent inhibition of binding [6] | percent inhibition of binding [7] | percent inhibition of binding [8] | percent inhibition of binding [9] | percent inhibition of binding [10]
1 | B1 | 3% | 0.046 s⁻¹ | 76% | 66% | binds | 77% | 75% | 47% | 50% | 73%
2 | B2 | 69% | 0.022 s⁻¹ | 53% | 77% | binds | 85% | 75% | 77% | 0% | 74%
3 | B3 | 6% | 0.00017 s⁻¹ | 100% | 94% | binds | 65% | 72% | 47% | 2% | 97%
4 | B4 | 13% | 0.0013 s⁻¹ | 100% | 99% | – | 91% | 97% | 35% | 16% | 98%
5 | B5 | – | 0.00023 s⁻¹ | – | – | binds | – | – | – | – | –
6 | B6 | -1% | 0.00045 s⁻¹ | 13% | 40% | – | 66% | 16% | 84% | -7% | 26%
7 | B7 | -29% | 3.9e-05 s⁻¹ | 100% | 90% | binds | 70% | 73% | 17% | -25% | 92%
